In the DeepSol protein solubility set:

Test: soluble on expression in E. coli; label from the status in PepcDB or PDB records

| Sequence | soluble on expression in E. coli |
| --- | --- |
| MAHHHHHHMKNFASWALRLHQDGISEERPQLGKQLYDKVCTVQTVKDYPGLRFKDMKEAIGFPIKRDDMFLPASMKEKRQQQQQIGVPPRRSQCFTCGQLGHYSNTCGVFKHKLNTRQKSDIQFKKQ | not soluble |
| MAHHHHHHMKNTVVRIKAELENVKRLFCDDEYLWIFNIRDSTSSLTRDNIQFRKTDILEIPNSRGTANFMIKWTEYPKYSTINFVNTKNSCSYEEVNNNEWRDFASFECRGIELIDFFPSNNFIVEDTKGKLYYDVNLSDQNWCDYNEEHEMCVGIYNLEYEVN | soluble |
| MAHHHHHHMKSTRTTAKVRPACLPYSTTMRSSRQTSSLLSRVAHSVGAVVAKANLLRQSPSREAHRPSGPAEGLRPSSSSAKPPVLASGDILRDLAFFTQASEVGFFSTHPSLCAQVFGVVPGDVFEVGGGCAVTSSSVVDVDAGSRMAREAIVVVGARSGKLWVWAYGDEAARVLRVPSSTTSAMLSSAVEVRAAIVEHYQLRQLVHPSRRQCSAGGGKAMEQDAQVEFARTVCEAFQSLCARAHEEVQRLYTPDQLAFLQRAPDLYAAATKRVDRVASSLDDASPTAGVNSEPQRQQPNHPPDGSSSFLPRSIYSDIARHAQHAAAVVLLAPRVSLVTGAVGWVGEGDVVLADSLVSQGGCAEASLSASVVI | soluble |
| MAHHHHHHMKTCKTGIQKVRDVSEATVLVLDWFERRNKPATPQSLADALGSRVAKSLLQKILEQLHAEEKLHVKDMKKIRFYYRRVLPLSDADGATTTKQHSEPEDDPAATTGERGNAVNVPEVCGGAETCAESPADAHAALLHAVAISAVQLSERSLRLTRWRGWPSSTERADKYADLAREVCELRNSLERLQSRHAGESAEAHGGGSWTSRVRRAVCRYRRARRHWVQRKDWAMCLLEATAGDAHTPLQAAALLGCTTDAEAGVSFEDTAVALPAPLMRELNLSQR | not soluble |
| MAHHHHHHMLDDLKTAYTPAVASKICYVASQLRIDATKGQPYTAVLEATMTAEGEQAMEVASLARIVHSCLVLRSGHLHEVLFTFIPFLREKAGTMDAVTTAVLINAYGRSGVHHPGLYKALCDNGATVLKDPRVPLAHIANVAYAVSRVKFLHPALMLTLRDHALRKVAEASPIISLTVLDAFTELRQIDDDLFNAYEQRLLGQLNELQAPLMASLVSCVVRAGRGKAEVMESLGARTVAIADTFDAASIAKVTNAYYEADVASEDVLGALAERACKVAADFRADEIATVLNALSAFDLFDAELFPLLASRLVALHRQGGYVDVADAAVILSSFAAVQERNDELIYVCTQLFAAYPGVAMDPAVRVNALWACASLNVHNEAQTKMLEEVRATPSLVMWESKTDTLPKAKATLEERTRFLAKVYGITISSSGAR | soluble |
| MAHHHHHHMLGACYPIPSGISLSLSRSRAYDVVYHYTRAAHIRLRLHGSGHSGEHMAAAEQRTCRPHLLWRLDGRPHADSIGHGLADDTRLCARVDLRRMLVACPRWGQSRAFIPQSRRLRALPRDGLRACLRGAVLPSGLATVTMVADDTT | not soluble |
| MAHHHHHHMLLFKRPHLRACESHADIAVDLAPLSQLRNYAEFEELLREELQKIYGNAPAEFHGVITYSTRDAPQSFRGCFTERQLETLHQYDAAVEKINHLSSEYRVALEEHERLVEGNKDRKPTQKRIREEEKSRKRLRAMKREVVAAEYNKECLSLKLKNLFSIDVIRVPLH | soluble |
| MAHHHHHHMLPAGLTLNTLTPLAQIPVELQRLARCAINAHRNAYCPYSKFAVGAALLHKDLKITAGCNYENCTLKGCCAELCAIVKGNSEGRRTATAVAVYGCSKAPDVMNLPPPDTVTPPCGFCRQSLVEVADLSNNYEDFLVVLVTLDKERVKLVKLCDIIPLKFGPSNIGMDLSQLAKDVELGNEDEKK | not soluble |
| MAHHHHHHMLRPTRVSRLVRSGSVALTPSCWTTKPAGWYLVPSSTLPATEELRVGKCFDFLNHSAQYLFLGQVMALAEEVKCIPWLEWFYSELHFSLPPTKEAELLANYMNDQERLRCGLRNHSEGGTSSSDIAWSRELKERVQRRAEEDFCWLLTHDQRKTEKFLQETFIQWHHRADYLVTRKSREKREFREDLTLQKVIQQGQERKRRMQRRRNRDEARQEAIKSGKESEWDNFTHDVLPRELREALDRESDGMEDVRLSRAGTATGGWSRSMRSHPNFR | soluble |
| MAHHHHHHMLRRSVVNLQNPARVFRSAAKRQKLDEAVRVDQAGEVAAVRICKYQLLWMSPLDSGVPVVKEILRDELVHEEVMGHLARKHSVRLTLLDPLFHVGAFVMGSCTALLGKDAVMCCHAAVEVTIAQHYNDQLRELQSLEESEGASKGKDEKDWAEVMEYVARFRDEELHHQELGEQNGAENAPAYPLLYNGIRIMCSLGVALAKRI | not soluble |
| MAHHHHHHMMLHTRRTVYSCICVHTHTHTHTCGCPPPTLSQKKKRSRLFMSSSSGDEYDPAEVTVHTTVASPSLSDTVVPSAAPFLRSAAGNASAATVAAAPALASLPKTAASVLPSSSSPTPPNTGNDVDGGYRLHSNIKGRIRCLTLNTAGTTLCAGSEDGQLCMWDFTVPLKSYRVQPTRVLTPFVNRISGLQPIIALTCASDDSYFVACQDGDSPVLVRASGEQLGYCAIGERGLMDVIQCKGHRAPVTCVAAHTHDAAAFFTGSQDGTVRLWNTATFKQRSVYAVKHGSGQLTDTHAVESVASLDSFHNGLGRVFASGGQDGRVQIWDSRVKYRPGGAIATVDMYAAAAPAGPDKVTEDPFMEKHVGGMMELHQKDAGASNASGSYGLAVRLGSAVKIIDLRQLSHSDGTTAPKAVLQEAATGLPHVLDTSALSIGRGGGSSTMMTCTSRVGYRHTKGGHVVQYRYADGDRLVPTLVWRAGKQDEDVLCACADISRADGCVFAGLSSGDVVVHGAFSSGAAAPQPMEAWLQTRPQREGYERAVGVKAPRAVEDDADLLRDLF | not soluble |
| MAHHHHHHMMRRMWVPTFSAQQQHLHHAMGLKMLTYASTPSGSGVTSAASNEEMNLHDAAAIAPGPYRRVGNIFIVHCDDHPFKHSWEVNRMLRELRLEFKGQTTIVPDIPQVRKRIWRVRHIVKVDVLDLDEAKALIGVPEHISFTDLASQLPPSFGRVKAVPSPVIRSKMNFMKLRRMRLRDVLHRDALELRLLELKRSAMKNAEQQKHAQK | not soluble |
| MAHHHHHHMNFLKRNATNICKGKVLGKHLNTSVQELTNLNKRKFSNIINLGKYGQRYQATHSGSIIGAKRFASGEAQKLSEVVKAEVQHEKSNYEAPDNIKKFLQTSGWKFEEQEGDVNMVLTKNVDGMKIIIDFQLVSPFQAEGENEAQAEMTDFSVTVEKPNKQGGITFYCTTLQNDEKFRYMIGNVKYYKNEEGKNSVSAYNGPEFEDLDDSLQTSLDEWLANLGVDSELCDFIDSCSIDKEQREYMSWLQNISNFIES | soluble |
| MAHHHHHHMNKMKSTKIENPKYKLMKLIGKGTFGKVYSAIDMSTQEAVAIKRSPKWRNKVSREVDLLKKMNGSTNIVKIKSVFYTTTKKGYRIQNIVFKYMTYSLGRYIRMKKQEKRENNQICIGIKDLHKNDFAHRDLKPDNILIDLDSSNIKIEICDLGSAKKVQRNIISIPYICSRWYRAPELLCGSMFYTTEVDLWSLGCIIFELINLCPLFPGKFKKDEYSEECSQIINLIEVIGSPQMSFFENIKDHTSKKNTLLIKELCELNIKPLCWDEILGNILEIENPNERLNIDAVLSNPYFSTLNK | not soluble |
| MAHHHHHHMNLIHICLFIIVIKCYVNCIKKNNKHIAYDKFYKQGSNTIVGSGNGSGDLLFLNNININKNVERKKNILAHSEIGTVRNIDDINLLNHNKKNEISFTKCKQIATIGPASENFEQLEKLYLNGIDVFRLNFSHGLKSIKKYIINSIRILEKKYDTTIGILGDIQGPKIRIGEFEKNQINENDNNTFVELKEGDLFSFDLMNSLGNQNRVQLNYPELIKNAKAGQIILLDDGNLKMKILENNYDTSNIQNSYIKVQVLTGGKLYSKKGFCIPNMIMPIDVLSEKDIKDILFCINEEVDFLGYSFVQTEYDLIFLRNIINDYYESDFYNNIKRKDRINFDQNNLQMKTFDDENDFYIKEVNDYYNNYYLKNVQKYKQIYDVYKNQDLYINDNIQNHYNKNIVTNIGDDKNIIDEQHIHNNNNNNIDNIMKNYSNLYNINKDHNKIAIISKIEKPSAIKNIENIIKLSDGIMIARGDLGIETNLSNLPILQKKLINLCRIKYNKPVIVATQMMESMRFLPSPTRAEVTDVATALYDGSDCVMLSAETATGQYPILTVSTQNKIIKDVENDYYYYEYTQRKNDKLKMLDHKNNCCHENKDIQQINKYNHEYIQNNKYEQDIQNNISYFDKLIFSIRDISNNINLKSIILFSNEFNKIQKLSNLRTKAPIIVITENKYLARKLQLTWGIYPHLSKKQNLFNHDLFSLINYGCDVSKKEGFVNSPDEYSLVTFSKNINSANLLYLCQPCLTN | not soluble |
| MAHHHHHHMNPHPVEPRDQIAELLVESPLFSFNCAHFIAFKGFRETLHGHNYNVSLRLRGNIQGDGYVIDFSILKEKVRKVCKQLDHHFILPMYSDVLNIQEVNDNFKITCEDNSEYSFPKRDCVQIPIKHSSTEEIGLYILNQLIEEIDLPFLKTRSVNYMEVTVSESPSQKATVHRNI | soluble |
| MAHHHHHHMNVALIFGITGQDGSYLSELLLEKGYTVHGVIRRCSSFNTKRIDHIFDQLNLHYGDVLDSSSICKLISKIKPHEIYNLAAQSHVKVSFELPVYTAETTAVGTLRILEAIKISNLPDVKFYNASTSELFGSSTDDRQHESTPFNPVSPYAIAKLYSHYITICYRKSYQMFCVNGILFNHESPRRGETFVTRKITRGVANICKNRQNCLVLGDLSTYRDWGHAKDYVRAMYLMLQQDEPDDFVISSNEKHTVKEFCEISFSFVGIFLKWKGTGIQEVGVDQHDRVLIKKDPRYYRECDVFHLHGDSSKARQKLQWAPTYSFFQLIYEMLTYDFEQCSLPIDDFDTCVSRYENYRGVPTK | not soluble |
| MAHHHHHHMNVEVTGRCFFTGDDYYISLPITNRAANRGEPRQLLCSEMIHWDDYRQERGINDGKPPMQQLFASSYAEPLVRTFALGNDTYVTQVTGVSATQAGSSSQMFSAEMLHWDDYCAARGINAGEPTMASLFRPFESKSILVFDLNERKLTEFEGNSVALISYGADRQTYCSEMEHRDDYIRAKTGQAPQPSMASLFA | not soluble |
| MAHHHHHHMPAVKQHLTGKASAAMRPTPSDAGAVLEPLTVRPSRVTTTTDHLTTSSAISTISVDTIRECGSAEDAYEAGKELGGVGPVFTGVAVPAEHPVAAAMPADAAELRHEEELKVIMCRYRPQSTEN | soluble |
| MAHHHHHHMPLKFAPKALNPEDSMRLAVVHMLRHDNAVILQTFTGNRGSSATRHGRLLRFMPHFPFCPTEKTGETAEEAPHLVEIAPLQLPYWARGSSRETMWPAARTPEAVHPSPPHFPHFLAERSSSLFVSISLPHFDLPLVFASPRREQRCSRDCRAEWLPRAVMDRDVAATWDEMLSAFCAAWSAAVRIEKTPFALLPPSLSHPLLAEQPLGEGRVPLQDEPAASFRLDPIVVPRRKLDRQRSERMLPPILAVDVAGKWNDTPSVFKSQEAALQRRFLAVARTLERTTAAPSRPLIVASVETPLTSDAAGECERLELASVVVPPFMCTQRMKAGRPWREGGHAGGRDTLVQEHSESLFSRMPPCMTRATELRFPDGKHMRQTLTLRNTAKERLEKLCGLRPPRRHRQKMAECFSTSKFSIARSRELAAAALLPSTVLSAASRVKPPHCSERKRRRGDVPPPPPPLQLLPHVRATAVFAFSSWQPLTLEEEEEENNDTCCEEELKIAPWRVFPREVELQSFQQLLERRIERNGKAMRVGNDDEEEKWYHAAFVHDVNTMPLPYREVSDLVEDARLHYCYRLALHREKRRLGL | not soluble |
